Experimental data: patent US20080004355A1, “Method for Inhibiting Telomerase Activity and an Agent for Inhibiting the Same” (priority 2004, published 2008)
Where a chain is given by its changes, count along the chain named. Peptide text beside a SMILES is read from it. * marks the point of attachment. Cbz = O=C(OCc1ccccc1)*

B1: N-terminal HA-tagged USP21 (enzyme, not shown: small tags and cut ends)
chain: MPQASEHRLGRTREPPVNIQPRVGSKLPFAPRARSKERRNPASGPNPMLRPLPPRPGLPDERLKKLELGRGRTSGPRPRGPLRADHGVPLPGSPPPTVALPLPSRTNLARSKSVSSGDLRPMGIALGGHRGTGELGAALSRLALRPEPPTLRRSTSLRRLGGFPGPPTLFSIRTEPPASHGSFHMISARSSEPFYSDDKMAHHTLLLGSGHVGLRNLGNTCFLNAVLQCLSSTRPLRDFCLRRDFRQEVPGGGRAQELTEAFADVIGALWHPDSCEAVNPTRFRAVFQKYVPSFSGYSQQDAQEFLKLLMERLHLEINRRGRRAPPILANGPVPSPPRRGGALLEEPELSDDDRANLMWKRYLEREDSKIVDLFVGQLKSCLKCQACGYRSTTFEVFCDLSLPIPKKGFAGGKVSLRDCFNLFTKEEELESENAPVCDRCRQKTRSTKKLTVQRFPRILVLHLNRFSASRGSIKKSSVGVDFPLQRLSLGDFASDKAGSPVYQLYALCNHSGSVHYGHYTALCRCQTGWHVYNDSRVSPVSENQVASSEGYVLFYQLMQEPPRCL
notes: Expressed transiently in HEK293T cells from pCI-HA-USP21 (human USP21 cDNA cloned from human kidney cDNA); also called HA-USP21
B2: N-terminal HA-tagged inactive USP21 (protein)
chain: B1 chain with C221A

Experiments:
TERT = assay: Effect of proteasome inhibitor on amount of intracellular TERT (transient TERT expression, Western blotting); type: cell-based, human; conditions: HEK293T cells transfected with pCIneo-TERT; final concentration 25 μM, 24 hours; compared with DMSO control; Western blotting with anti-TERT antibodies
Description: NEDD8 is a ubiquitin-like protein, and is known to covalently conjugate to proteins for post translational modification of proteins. Only a cullin family protein, which is one of the subunits of a ubiquitin ligase complex, has been reported as a protein that undergoes NEDD8 conjugation (Non-patent References 5 and 6). […] NEDD8 has a significant homology with ubiquitin at the level of both primary structure and tertiary structure. Therefore, it is plausible that NEDD8 conjugation to proteins works as a signal for proteasome-dependent protein degradation (Non-patent Reference 5), similar to ubiquitination. Thus, it can be reasoned, that there exists a regulatory system for TERT degradation via modification by NEDD8 conjugation to TERT and NEDD8 deconjugation by USP21. Accordingly, an investigation was conducted to determine whether TERT may undergo proteasome-dependent degradation. […]
8×10^4 cells/well of HEK293T cells were cultured overnight at 37° C. under the atmosphere of 5% CO2 in 12 well plates, and then transfected with 1 μg of pCIneo-TERT using FuGENE6 Transfection Reagent (Roche). […] Further, β-tubulin, an internal control protein in the cell lysates, was detected by Western blotting using anti-β-tubulin (H-235) antibodies (Santa Cruz). […]

[1] = biological target: T1, N-terminal FLAG-tagged TERT (human, UniProt O14746 1-1132); assay: co-expression in HEK293T cells, immunoprecipitation with anti-HA agarose, Western blot with anti-FLAG
T1 construct: Expressed transiently in HEK293T cells from pCI-FLAG-TERT (human TERT cDNA cloned from human thymus cDNA); present in the cell lysate; also called FLAG-TERT
T1 sequence (O14746 whole entry): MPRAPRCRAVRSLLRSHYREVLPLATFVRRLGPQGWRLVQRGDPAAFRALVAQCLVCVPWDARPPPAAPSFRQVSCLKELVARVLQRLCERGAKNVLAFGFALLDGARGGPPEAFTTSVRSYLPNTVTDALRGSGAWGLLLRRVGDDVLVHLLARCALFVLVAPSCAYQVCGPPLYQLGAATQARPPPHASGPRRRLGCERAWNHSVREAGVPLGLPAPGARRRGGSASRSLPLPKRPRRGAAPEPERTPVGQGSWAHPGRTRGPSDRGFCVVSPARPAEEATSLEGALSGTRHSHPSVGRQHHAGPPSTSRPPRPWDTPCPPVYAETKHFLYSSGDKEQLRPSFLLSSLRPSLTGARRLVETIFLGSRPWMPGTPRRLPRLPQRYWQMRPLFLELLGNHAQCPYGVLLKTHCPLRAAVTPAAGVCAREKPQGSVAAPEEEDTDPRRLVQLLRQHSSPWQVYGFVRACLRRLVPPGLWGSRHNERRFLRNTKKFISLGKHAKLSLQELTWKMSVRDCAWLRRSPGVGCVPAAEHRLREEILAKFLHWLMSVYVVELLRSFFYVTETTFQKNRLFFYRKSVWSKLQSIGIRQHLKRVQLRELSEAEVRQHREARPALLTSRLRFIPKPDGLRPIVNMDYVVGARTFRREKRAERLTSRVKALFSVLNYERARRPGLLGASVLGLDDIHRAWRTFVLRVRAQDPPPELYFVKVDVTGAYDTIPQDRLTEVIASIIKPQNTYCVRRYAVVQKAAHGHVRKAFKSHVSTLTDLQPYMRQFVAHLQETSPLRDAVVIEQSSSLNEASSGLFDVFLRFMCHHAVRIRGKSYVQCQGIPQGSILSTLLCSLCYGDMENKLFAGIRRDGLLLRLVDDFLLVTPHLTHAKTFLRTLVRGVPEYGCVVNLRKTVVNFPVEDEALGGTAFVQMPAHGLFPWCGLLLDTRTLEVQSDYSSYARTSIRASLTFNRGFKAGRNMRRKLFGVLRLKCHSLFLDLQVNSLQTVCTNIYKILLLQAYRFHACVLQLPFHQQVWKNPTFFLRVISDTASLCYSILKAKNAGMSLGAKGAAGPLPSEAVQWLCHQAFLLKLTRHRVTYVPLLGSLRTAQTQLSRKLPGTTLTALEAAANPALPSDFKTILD
Experimental: 4×10⁵ HEK293T cells were cultured overnight at 37° C. under the atmosphere of 5% CO₂ in a dish with 60 mm diameter, and then transfected with 2 μg of pCI-FLAG-TERT alone or in combination with 2 μg of pCI-HA-USP21 or pCI-HA-NEDD8, using FuGENE6 Transfection Reagent (Roche). After 2 days of culturing, the cells were collected and suspended in 500 μl of cell lysis buffer (20 mM Tris-HCl, pH7.4/150 mM NaCl/1 mM ethylenediaminetetraacetic acid (EDTA)/1 mM ethylene glycol-bis-tetraacetic acid (EGTA)/1% Triton X-100/2.5 mM sodium pyrophsphate/1 mM β-glycerophsphate/1 mM Na₃VO₄/protease inhibitor cocktail), and then left to stand on ice for 20 minutes. Subsequently, centrifugation was conducted at 4° C. for 10 minutes at 14,000 rpm to collect the supernatants. The supernatants that were collected were used as cell lysates. […] The resulting supernatant was added to 10 μl of anti-HA antibody-conjugated agarose (anti-HA(Y-11)-agaraose, Santa cruz), and then subjected to overturned mixing at 4° C. overnight, followed by centrifugation to collect the beads. The beads were washed with the cell lysis buffer four times, and then added with 30 μl of 2× SDS sample buffer (125 mM Tris HCl, pH 6.8/4% sodium dodecylsulphate (SDS)/20% glycerol/0.01% bromophenol blue). […]

[2] = biological target: TERT modified with one or more FLAG-NEDD8 molecules (NEDD8-conjugated TERT)

Row | Molecule | amount of TERT in cell lysate (TERT) | binding result [1] | smear-like signals in a high molecular region indicating TERT modified with one or more FLAG-NEDD8 molecules (IP anti-TERT, Western blot anti-FLAG) [2]
1 | CC(C)C[C@@H](C=O)NC(=O)[C@H](CC(C)C)NC(=O)[C@H](CC(C)C)NC(=O)OCc1ccccc1 [MG132] (Cbz-Leu-Leu-Leu-aldehyde) | increased amount of TERT |  | 
2 | B1 |  | binds | significantly decreased by co-expression of HA-USP21
3 | B2 |  |  | Such decrease of the signals was not observed when co-expressing the inactive USP21, HA-USP21C221A, instead of HA-USP21
